The target in series [1] is T1, Dcm N436K (Escherichia coli) (UniProt P0AED9).
T1 sequence: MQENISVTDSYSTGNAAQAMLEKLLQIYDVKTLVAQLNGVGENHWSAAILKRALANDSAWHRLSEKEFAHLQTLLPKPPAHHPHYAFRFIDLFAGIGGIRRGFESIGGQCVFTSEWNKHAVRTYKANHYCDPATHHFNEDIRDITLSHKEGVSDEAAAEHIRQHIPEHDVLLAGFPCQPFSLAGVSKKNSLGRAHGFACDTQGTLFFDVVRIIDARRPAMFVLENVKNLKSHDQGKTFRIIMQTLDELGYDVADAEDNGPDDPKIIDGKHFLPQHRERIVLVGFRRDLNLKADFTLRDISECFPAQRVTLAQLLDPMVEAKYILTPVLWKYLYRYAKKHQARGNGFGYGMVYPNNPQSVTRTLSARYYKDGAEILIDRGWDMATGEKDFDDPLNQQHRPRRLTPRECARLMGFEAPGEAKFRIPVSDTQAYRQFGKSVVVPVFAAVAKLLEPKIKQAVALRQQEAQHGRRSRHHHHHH
Description: cell_activity. The note with it: CCWGG sites carboxymethylated; also makes 5mC.

The test system of series [2] is M.MpeI N374K (Mycoplasma penetrans). The conditions noted are these: CpGs converted to 5cxmC with CxSAM; ~60% 5mC with SAM; bisulfite sequencing.
Series [3] shares this test system. The note with it: 5mC on one strand of CpG; CxSAM preferred over SAM 1.3-fold; HpaII protection assay.
The test system is the same in series [4]. The conditions noted are these: CpGs modified with SAM or CxSAM, bisulfite sequencing.
Series [5] relates to M.MpeI WT K374N (reversion to wild type) (Mycoplasma penetrans). The conditions noted are these: CpGs modified with SAM; no transfer with CxSAM.

Like-named read-outs stand apart in the source and are kept apart here. Where only a bound is given, the exact number is not on record here.

Substance E. coli genomic DNA (dam-/dcm-) registered an activity in series [1] of over 1.5%. In series [2], lambda phage genomic DNA, unmethylated had an activity of 50%.

As for “hemimethylated CpG fluorophore-labelled oligonucleotide”, the binding signal in series [3] came out at 1.3 fold.

Consider pUC19 plasmid DNA, for which the activity in series [4] was over 70%; in series [5] it was 100%.

The record behind these values is patent publication US20230183793.
